{"source": "patent US20220347267A1", "about": "“METHODS TO IMPROVE PATIENT RESPONSE TO IMMUNE CHECKPOINT INHIBITORS AND FUNCTIONAL TESTS TO PREDICT RESPONSE” (Biomarker Strategies, LLC, priority 2019, published 2022)", "molecules": {"B1": {"name": "IFNγ: human IFNγ, modulator (10 ng/ml; Sigma Aldrich) (protein, UniProt P01579 24-161, looked up)", "Interferon gamma": "QDPYVKEAENLKKYFNAGHSDVADNGTLFLGILKNWKEESDRKIMQSQIVSFYFKLFKNFKDDQSIQKSVETIKEDMNVKFFNSNKKKRDDFEKLTNYSVTDLNVQRKAIHELIQVMAELSPAAKTGKRKRSQMLFRG"}}, "assay_in_all_cases": "PD-L1 flow cytometry, IFNγ modulation", "type_in_all_cases": "cell-based, human", "key": {"[1]": {"system": "H1299 cells", "protocol": "(§1) Samples (150 uL per tube) were first incubated with a blocking reagent at 1:20 for 15 min at room temperature. Alexa 488-conjugated PD-L1 antibody (CST cat #25048, Lot #2) and Alexa 488-conjugated isotype antibody (CST cat #2975, Lot #16) were added to experimental samples and isotype control samples, respectively, at a manufacturer recommended dilution of 1:50 and the samples were incubated for 30 min at room temperature. Other fluorophore-conjugates and PD-L1 antibodies, including those targeting different epitopes, can be readily used. Additionally, antibodies detecting other biomarkers with appropriate processing (e.g. permeabilization of cells) to predict response (e.g. p-STAT-1) can be used. Following the incubation with an antibody, 1 mL of 2% FBS in PBS was added to each tube to dilute the antibody. Samples were then centrifuged at 200 rcf for 5 min. Supernatant was carefully aspirated and 200 uL of 10% neutral buffered formalin (NBF) was added. Samples were then fixed for 10 min at room temperature. NBF was diluted with 1 mL of 2% FBS in PBS and the samples were centrifuged at 200 rcf for 5 min. Supernatant was aspirated and the cells were resuspended in 0.5 mL of 2% FBS in PBS for flow cytometric analysis. In this experiment, 10% NBF was used to fix cells, but other fixatives, for example, 4% paraformaldehyde can be used.\n(§2) Flow cytometry was performed using BDTM LSR II cytometer and BD FACSDiva™ data acquisition software. Any commercially available flow cytometry analysis software can be used, such as FlowJo (BD) and FCS Express (De Novo Software). Additionally, other flow cytometry instruments can be readily used. A total of 20,000 events were recorded for each sample. A Scatter gate was first applied, and a singlet gate was then applied on the scatter population to exclude doublet population. A 488 nm blue laser and a 530 nm detector were used to capture PD-LL signal. Any signal above the isotype control signal of the singlet population was considered PD-L1+(see FIG. 33). Though it was excluded from this experiment, cell viability can be assessed, and dead cells excluded from analysis, using stains such as Live/Dead™ Fixable Dead Cell Stain (Thermo) for fixed cells, or either 7-AAD (7-Aminoactinomycin D) or Propidium Iodide for unfixed cells.\n(§3) A percent change in PD-L1+ events between Untreated (non-modulated; vehicle control) and Treated (modulated with IFNγ) samples was calculated for each of the four cell lines tested (Table 2). […] A percent change in PD-L1 signal between Untreated and Treated samples was calculated for each of the four cell lines tested. […] The mean PD-L1 signal was used to calculate the percent change, however, median (as shown in FIGS. 34A-34H), geometric mean, mode or any other averaging method can also be used. To assess the difference in PD-L1 expression level or number of PD-L1+ events between Treated and Untreated samples, either a percent change or fold change can be calculated. Differences in PD-L1 expression level can also be assessed between a control sample with a known PD-L1 level and a clinical sample with an unknown PD-L1 level. To do so, the assay result of modulated and unmodulated clinical samples should be normalized to that of a control sample. A percent change or fold change between modulated and unmodulated samples can then be calculated using the normalized values. Baseline PD-L1 levels, as well as changes to PD-L1 upon modulation, can be used to predict response to therapy. As mentioned in the Methods section above, the antibody against PD-L1 used in this experiment targets extracellular portion of the PD-L1 molecule and as such, permeabilization was not performed. Antibodies such as those that target other PD-L1 domains would yield different PD-L1 expression patterns depending on the form(s) of PD-L1 present in the cell lines tested. Flow cytometry cannot detect PD-L1 molecules that are already secreted and not bound to other cell surfaces proteins. […]"}, "[2]": {"system": "SKMES1 cells", "protocol": "as §1, §2, §3"}, "[3]": {"system": "H460 cells", "protocol": "as §1, §2, §3"}, "[4]": {"system": "H1650 cells", "protocol": "as §1, §2, §3"}, "[5]": {"conditions": "modulated with IFNγ, 20,000 events recorded"}}}
{"molecule": "B1", "values": [{"measurement": "Mean PD-L1 signal in Singlets, % change (Treated - Untreated)/Untreated", "setting": "[1]; IFNγ treated vs untreated", "value": 24, "unit": "%"}, {"measurement": "Mean PD-L1 signal in Singlets, Fold change (Treated/Untreated)", "setting": "[1]; IFNγ treated vs untreated", "value": 1.24}, {"measurement": "Number of Events in PD-L1 + population, % change (Treated - Untreated)/Untreated", "setting": "[1]; IFNγ treated vs untreated", "value": 71, "unit": "%"}, {"measurement": "Number of Events in PD-L1 + population, Fold change (Treated/Untreated)", "setting": "[1]; IFNγ treated vs untreated", "value": 1.71}, {"measurement": "Mean PD-L1 signal in Singlets, Treated", "setting": "[1]; modulated with IFNγ", "value": 538}, {"measurement": "Number of Events in PD-L1 + population, Treated", "setting": "[1]; [5]", "value": 3462}, {"measurement": "Mean PD-L1 signal in Singlets, % change (Treated - Untreated)/Untreated", "setting": "[2]; IFNγ treated vs untreated", "value": 22, "unit": "%"}, {"measurement": "Mean PD-L1 signal in Singlets, Fold change (Treated/Untreated)", "setting": "[2]; IFNγ treated vs untreated", "value": 1.22}, {"measurement": "Number of Events in PD-L1 + population, % change (Treated - Untreated)/Untreated", "setting": "[2]; IFNγ treated vs untreated", "value": 3, "unit": "%"}, {"measurement": "Number of Events in PD-L1 + population, Fold change (Treated/Untreated)", "setting": "[2]; IFNγ treated vs untreated", "value": 1.03}, {"measurement": "Mean PD-L1 signal in Singlets, Treated", "setting": "[2]; modulated with IFNγ", "value": 4228}, {"measurement": "Number of Events in PD-L1 + population, Treated", "setting": "[2]; [5]", "value": 1772}, {"measurement": "Mean PD-L1 signal in Singlets, % change (Treated - Untreated)/Untreated", "setting": "[3]; IFNγ treated vs untreated", "value": 20, "unit": "%"}, {"measurement": "Mean PD-L1 signal in Singlets, Fold change (Treated/Untreated)", "setting": "[3]; IFNγ treated vs untreated", "value": 1.20}, {"measurement": "Number of Events in PD-L1 + population, % change (Treated - Untreated)/Untreated", "setting": "[3]; IFNγ treated vs untreated", "value": 4, "unit": "%"}, {"measurement": "Number of Events in PD-L1 + population, Fold change (Treated/Untreated)", "setting": "[3]; IFNγ treated vs untreated", "value": 1.04}, {"measurement": "Mean PD-L1 signal in Singlets, Treated", "setting": "[3]; modulated with IFNγ", "value": 1646}, {"measurement": "Number of Events in PD-L1 + population, Treated", "setting": "[3]; [5]", "value": 13382}, {"measurement": "Mean PD-L1 signal in Singlets, % change (Treated - Untreated)/Untreated", "setting": "[4]; IFNγ treated vs untreated", "value": 63, "unit": "%"}, {"measurement": "Mean PD-L1 signal in Singlets, Fold change (Treated/Untreated)", "setting": "[4]; IFNγ treated vs untreated", "value": 1.63}, {"measurement": "Number of Events in PD-L1 + population, % change (Treated - Untreated)/Untreated", "setting": "[4]; IFNγ treated vs untreated", "value": 266, "unit": "%"}, {"measurement": "Number of Events in PD-L1 + population, Fold change (Treated/Untreated)", "setting": "[4]; IFNγ treated vs untreated", "value": 3.66}, {"measurement": "Mean PD-L1 signal in Singlets, Treated", "setting": "[4]; modulated with IFNγ", "value": 714}, {"measurement": "Number of Events in PD-L1 + population, Treated", "setting": "[4]; [5]", "value": 5883}]}
